T1: TcICln (truncated Canis familiaris ICln, ICln159X), N-terminal His6-tagged (Canis familiaris, UniProt P35521 1-158)
T1 construct: ICln, Canis familiaris, truncation mutant ICln159X lacking the C-terminal part (stop at position 159); pleckstrin homology domain-like fold; NCBI NP_001003288.1; Uniformly 15N-labelled; The last residue (158) is worked out from the name ICln159X; also called truncated form of cICln; source: E. coli BL21(DE3), purified (IMAC HisTrap, Superdex 75)
T1 sequence (looked up): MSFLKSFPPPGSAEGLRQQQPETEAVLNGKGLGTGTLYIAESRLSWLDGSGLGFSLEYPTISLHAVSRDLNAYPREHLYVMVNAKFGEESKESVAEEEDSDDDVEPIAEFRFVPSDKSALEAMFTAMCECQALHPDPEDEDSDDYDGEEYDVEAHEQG


Legend:
[1] = molecular target: T2, αIIbs-YFP (transmembrane and intracellular portion, amino acids 987-1039, of the human integrin αIIb chain, … (human, UniProt P08514-1 987-1039)); experiment: FRET or BRET; acceptor photobleaching; living NIH-3T3 fibroblasts in isotonic solution; CFP donor, YFP acceptor; FRET efficiency in three plasma membrane ROIs of each cell; conditions: partners not purified
T2 construct: integrin αIIb chain, human, amino acids 987-1039 (transmembrane and intracellular portion); numbers count on NCBI NP_000410.2; The methods say 'YFP was fused to the Ct of ICln'; also called αIIb-short; αIIb short; source: NIH-3T3 fibroblasts or HEK293 Phoenix cells, transiently transfected (pEYFP-N1), in cells; not shown: YFP, C-terminal, kept
T2 sequence (P08514 987-1039): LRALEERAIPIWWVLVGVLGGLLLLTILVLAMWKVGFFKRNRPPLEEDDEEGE

[2] = molecular target: T2, αIIbs-YFP (transmembrane and …); experiment: FRET or BRET; acceptor photobleaching; HEK293 Phoenix cells; FRET efficiency in 4-5 plasma membrane ROIs of each cell; conditions: partners not purified
[3] = molecular target: T1, TcICln (truncated Canis familiaris …); experiment: NMR titration; 1H-15N HSQC of 15N-labelled ICln (0.8 mM) without and with the integrin peptide (equimolar amount for TcICln); 50 mM K2HPO4, pH 6.6, 90% H2O/10% D2O, 25 °C, 800 MHz; conditions: both partners purified

Binder	ratio of the FRET efficiency to that of CFP and αIIbs-YFP [1]	ratio of the FRET efficiency to that of CFP and αIIbs-YFP [2]	binding result [3]
CFP-ICln (Canis familiaris ICln, wild type, CFP fused to the N-terminus) (natural protein, UniProt P35521 1-235, looked up, ICln, Canis familiaris (cDNA from the MDCK cell line), ORF of full length ICln; NCBI NP_001003288.1; The same construct was used in two cell lines (NIH-3T3 and HEK293 Phoenix); the assays tell them apart; also called CFP-ICln wt; cICln; source: NIH-3T3 fibroblasts or HEK293 Phoenix cells, transiently transfected (pECFP-C1), in cells; not shown: CFP, N-terminal, kept) MSFLKSFPPPGSAEGLRQQQPETEAVLNGKGLGTGTLYIAESRLSWLDGSGLGFSLEYPTISLHAVSRDLNAYPREHLYVMVNAKFGEESKESVAEEEDSDDDVEPIAEFRFVPSDKSALEAMFTAMCECQALHPDPEDEDSDDYDGEEYDVEAHEQGQGDIPTFYTYEEGLSHLTAEGQATLERLEGMLSQSVSSQYNMAGVRTEDSTRDYEDGMEVDTTPTVAGQFEDADVDH	2.9	2.7	–
MWKVGFFKRNR (integrin αIIb chain, human, residues 1018-1028; numbers count on NCBI NP_000410.2; also called integrin αIIb peptide with the KVGFFKR motif; source: synthetic peptide) [integrin peptide (1018)MWKVGFFKRNR(1028)]	–	–	binds

From paper PMC6704128, “Binding of the protein ICln to α-integrin contributes to the activation of ICl_(swell) current” (Scientific Reports, 2019)
